These are literature values, as cited in publication PMC8985225.

pKd: −log10 of the molar value. Where only a bound is given, the exact number is not on record here.

In the series the target is CaMKII kinase domain (Caenorhabditis elegans) (UniProt O62305).

Usually pKd stands for −log10 of the Kd, conventionally taken in molar units. On to “CaMKII kinase domain (from UniProt O62305)”, for which the pKd was below 4.00.
